Earlier results on one molecule are cited in article PMC4976356, “Structural insight into β-Clamp and its interaction with DNA Ligase in Helicobacter pylori” (Scientific Reports, 2016).

The data set has as its system Ecβ-clamp.

B1: ligase from E. coli: E. coli DNA ligase examined for interaction with Ecβ-clamp (ref 10) (protein, UniProt P15042 1-671, looked up)
DNA ligase: MESIEQQLTELRTTLRHHEYLYHVMDAPEIPDAEYDRLMRELRELETKHPELITPDSPTQRVGAAPLAAFSQIRHEVPMLSLDNVFDEESFLAFNKRVQDRLKNNEKVTWCCELKLDGLAVSILYENGVLVSAATRGDGTTGEDITSNVRTIRAIPLKLHGENIPARLEVRGEVFLPQAGFEKINEDARRTGGKVFANPRNAAAGSLRQLDPRITAKRPLTFFCYGVGVLEGGELPDTHLGRLLQFKKWGLPVSDRVTLCESAEEVLAFYHKVEEDRPTLGFDIDGVVIKVNSLAQQEQLGFVARAPRWAVAFKFPAQEQMTFVRDVEFQVGRTGAITPVARLEPVHVAGVLVSNATLHNADEIERLGLRIGDKVVIRRAGDVIPQVVNVVLSERPEDTREVVFPTHCPVCGSDVERVEGEAVARCTGGLICGAQRKESLKHFVSRRAMDVDGMGDKIIDQLVEKEYVHTPADLFKLTAGKLTGLERMGPKSAQNVVNALEKAKETTFARFLYALGIREVGEATAAGLAAYFGTLEALEAASIEELQKVPDVGIVVASHVHNFFAEESNRNVISELLAEGVHWPAPIVINAEEIDSPFAGKTVVLTGSLSQMSRDDAKARLVELGAKVAGSVSKKTDLVIAGEAAGSKLAKAQELGIEVIDEAEMLRLLGS
In the case of B1, the “interaction with E. coli β-clamp (in words)” value is “interacts with its β-clamp”.
